This passage reports Kd results from publication PMC10786891, “Massively parallel profiling of RNA-targeting CRISPR-Cas13d”.

T1: EsCas13d, nuclease-dead (Eubacterium siraeum, UniProt B0MS50, R295A;H300A;R849A;H854A)
T1 sequence: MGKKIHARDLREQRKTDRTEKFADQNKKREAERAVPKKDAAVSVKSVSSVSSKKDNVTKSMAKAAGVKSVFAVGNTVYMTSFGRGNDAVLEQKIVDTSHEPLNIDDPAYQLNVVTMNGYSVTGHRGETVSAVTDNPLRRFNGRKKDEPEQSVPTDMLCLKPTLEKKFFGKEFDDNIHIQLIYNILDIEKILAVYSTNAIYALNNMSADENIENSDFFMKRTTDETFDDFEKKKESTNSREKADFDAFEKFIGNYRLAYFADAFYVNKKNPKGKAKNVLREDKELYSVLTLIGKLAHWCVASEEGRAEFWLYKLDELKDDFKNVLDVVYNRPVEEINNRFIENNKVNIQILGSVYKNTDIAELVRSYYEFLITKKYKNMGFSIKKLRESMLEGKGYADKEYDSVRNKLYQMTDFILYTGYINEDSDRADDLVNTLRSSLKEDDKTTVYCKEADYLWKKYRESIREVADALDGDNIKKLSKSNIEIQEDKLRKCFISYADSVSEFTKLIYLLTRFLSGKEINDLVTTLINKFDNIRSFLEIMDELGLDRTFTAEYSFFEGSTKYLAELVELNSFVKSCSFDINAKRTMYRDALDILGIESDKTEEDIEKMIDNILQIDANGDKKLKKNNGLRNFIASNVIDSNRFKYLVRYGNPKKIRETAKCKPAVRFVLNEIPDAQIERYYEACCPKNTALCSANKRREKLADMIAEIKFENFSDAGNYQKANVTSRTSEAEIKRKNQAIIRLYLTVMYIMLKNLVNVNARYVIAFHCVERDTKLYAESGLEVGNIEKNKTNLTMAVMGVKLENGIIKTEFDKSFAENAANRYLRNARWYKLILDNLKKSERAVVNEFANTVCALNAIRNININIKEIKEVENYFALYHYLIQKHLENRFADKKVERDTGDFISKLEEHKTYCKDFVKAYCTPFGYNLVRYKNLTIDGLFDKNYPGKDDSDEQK

B1: target 2 MT 5'PFS UAC 3'PFS CAU (mixed)
RNA 1: CACCCGUGCAAAAUUGCAGGGGUCUAAAACCUUCUCCAAAUUGUUUCAUCCU
RNA 2: GGGAAUGGAUCCACAUCUACGAAUUCUACAGGAUGAAACAAUUUGGAGAAGCAUAGAUCGGAAGAGCACACGU
B2: target 2 MT 5'PFS UCG 3'PFS CGA (mixed)
RNA 1: CACCCGUGCAAAAUUGCAGGGGUCUAAAACCUUCUCCAAAUUGUUUCAUCCU
RNA 2: GGGAAUGGAUCCACAUCUACGAAUUCUCGAGGAUGAAACAAUUUGGAGAAGCGAAGAUCGGAAGAGCACACGU
B3: target 2 MT 5'PFS UCG 3'PFS CGG (mixed)
RNA 1: CACCCGUGCAAAAUUGCAGGGGUCUAAAACCUUCUCCAAAUUGUUUCAUCCU
RNA 2: GGGAAUGGAUCCACAUCUACGAAUUCUCGAGGAUGAAACAAUUUGGAGAAGCGGAGAUCGGAAGAGCACACGU
B4: target 2 MT 5'PFS AUU 3'PFS CCG (mixed)
RNA 1: CACCCGUGCAAAAUUGCAGGGGUCUAAAACCUUCUCCAAAUUGUUUCAUCCU
RNA 2: GGGAAUGGAUCCACAUCUACGAAUUCAUUAGGAUGAAACAAUUUGGAGAAGCCGAGAUCGGAAGAGCACACGU
B5: target 2 MT 5'PFS GUU 3'PFS CGU (mixed)
RNA 1: CACCCGUGCAAAAUUGCAGGGGUCUAAAACCUUCUCCAAAUUGUUUCAUCCU
RNA 2: GGGAAUGGAUCCACAUCUACGAAUUCGUUAGGAUGAAACAAUUUGGAGAAGCGUAGAUCGGAAGAGCACACGU
B6: target 2 MT 5'PFS GCG 3'PFS CCG (mixed)
RNA 1: CACCCGUGCAAAAUUGCAGGGGUCUAAAACCUUCUCCAAAUUGUUUCAUCCU
RNA 2: GGGAAUGGAUCCACAUCUACGAAUUCGCGAGGAUGAAACAAUUUGGAGAAGCCGAGAUCGGAAGAGCACACGU
B7: target 2 MT 5'PFS AAC 3'PFS AAU (mixed)
RNA 1: CACCCGUGCAAAAUUGCAGGGGUCUAAAACCUUCUCCAAAUUGUUUCAUCCU
RNA 2: GGGAAUGGAUCCACAUCUACGAAUUCAACAGGAUGAAACAAUUUGGAGAAGAAUAGAUCGGAAGAGCACACGU
B8: target 2 MT 5'PFS UAC 3'PFS ACC (mixed)
RNA 1: CACCCGUGCAAAAUUGCAGGGGUCUAAAACCUUCUCCAAAUUGUUUCAUCCU
RNA 2: GGGAAUGGAUCCACAUCUACGAAUUCUACAGGAUGAAACAAUUUGGAGAAGACCAGAUCGGAAGAGCACACGU
B9: target 2 MT 5'PFS UAC 3'PFS ACG (mixed)
RNA 1: CACCCGUGCAAAAUUGCAGGGGUCUAAAACCUUCUCCAAAUUGUUUCAUCCU
RNA 2: GGGAAUGGAUCCACAUCUACGAAUUCUACAGGAUGAAACAAUUUGGAGAAGACGAGAUCGGAAGAGCACACGU
B10: target 2 MT 5'PFS AUC 3'PFS AUG (mixed)
RNA 1: CACCCGUGCAAAAUUGCAGGGGUCUAAAACCUUCUCCAAAUUGUUUCAUCCU
RNA 2: GGGAAUGGAUCCACAUCUACGAAUUCAUCAGGAUGAAACAAUUUGGAGAAGAUGAGAUCGGAAGAGCACACGU
B11: target 2 MT 5'PFS UCA 3'PFS UCC (mixed)
RNA 1: CACCCGUGCAAAAUUGCAGGGGUCUAAAACCUUCUCCAAAUUGUUUCAUCCU
RNA 2: GGGAAUGGAUCCACAUCUACGAAUUCUCAAGGAUGAAACAAUUUGGAGAAGUCCAGAUCGGAAGAGCACACGU
B12: target 2 MT 5'PFS UCG 3'PFS CGC (mixed)
RNA 1: CACCCGUGCAAAAUUGCAGGGGUCUAAAACCUUCUCCAAAUUGUUUCAUCCU
RNA 2: GGGAAUGGAUCCACAUCUACGAAUUCUCGAGGAUGAAACAAUUUGGAGAAGCGCAGAUCGGAAGAGCACACGU
B13: target 2 MT 5'PFS GUU 3'PFS CGC (mixed)
RNA 1: CACCCGUGCAAAAUUGCAGGGGUCUAAAACCUUCUCCAAAUUGUUUCAUCCU
RNA 2: GGGAAUGGAUCCACAUCUACGAAUUCGUUAGGAUGAAACAAUUUGGAGAAGCGCAGAUCGGAAGAGCACACGU
B14: target 2 MT 5'PFS AAA 3'PFS ACG (mixed)
RNA 1: CACCCGUGCAAAAUUGCAGGGGUCUAAAACCUUCUCCAAAUUGUUUCAUCCU
RNA 2: GGGAAUGGAUCCACAUCUACGAAUUCAAAAGGAUGAAACAAUUUGGAGAAGACGAGAUCGGAAGAGCACACGU
B15: target 2 MT 5'PFS GUU 3'PFS CGA (mixed)
RNA 1: CACCCGUGCAAAAUUGCAGGGGUCUAAAACCUUCUCCAAAUUGUUUCAUCCU
RNA 2: GGGAAUGGAUCCACAUCUACGAAUUCGUUAGGAUGAAACAAUUUGGAGAAGCGAAGAUCGGAAGAGCACACGU
B16: target 2 MT 5'PFS AAC 3'PFS AAC (mixed)
RNA 1: CACCCGUGCAAAAUUGCAGGGGUCUAAAACCUUCUCCAAAUUGUUUCAUCCU
RNA 2: GGGAAUGGAUCCACAUCUACGAAUUCAACAGGAUGAAACAAUUUGGAGAAGAACAGAUCGGAAGAGCACACGU
B17: target 2 MT 5'PFS GUU 3'PFS CGG (mixed)
RNA 1: CACCCGUGCAAAAUUGCAGGGGUCUAAAACCUUCUCCAAAUUGUUUCAUCCU
RNA 2: GGGAAUGGAUCCACAUCUACGAAUUCGUUAGGAUGAAACAAUUUGGAGAAGCGGAGAUCGGAAGAGCACACGU
B18: target 2 MT 5'PFS AUU 3'PFS CCA (mixed)
RNA 1: CACCCGUGCAAAAUUGCAGGGGUCUAAAACCUUCUCCAAAUUGUUUCAUCCU
RNA 2: GGGAAUGGAUCCACAUCUACGAAUUCAUUAGGAUGAAACAAUUUGGAGAAGCCAAGAUCGGAAGAGCACACGU
B19: target 2 MT 5'PFS GGC 3'PFS UAU (mixed)
RNA 1: CACCCGUGCAAAAUUGCAGGGGUCUAAAACCUUCUCCAAAUUGUUUCAUCCU
RNA 2: GGGAAUGGAUCCACAUCUACGAAUUCGGCAGGAUGAAACAAUUUGGAGAAGUAUAGAUCGGAAGAGCACACGU
B20: target 2 MT 5'PFS AAA 3'PFS ACU (mixed)
RNA 1: CACCCGUGCAAAAUUGCAGGGGUCUAAAACCUUCUCCAAAUUGUUUCAUCCU
RNA 2: GGGAAUGGAUCCACAUCUACGAAUUCAAAAGGAUGAAACAAUUUGGAGAAGACUAGAUCGGAAGAGCACACGU
B21: target 2 MT 5'PFS UAC 3'PFS ACA (mixed)
RNA 1: CACCCGUGCAAAAUUGCAGGGGUCUAAAACCUUCUCCAAAUUGUUUCAUCCU
RNA 2: GGGAAUGGAUCCACAUCUACGAAUUCUACAGGAUGAAACAAUUUGGAGAAGACAAGAUCGGAAGAGCACACGU
B22: target 1 G12C,G15A (mixed)
RNA 1: CACCCGUGCAAAAAUGCAGGGGUCUAAAACUGAGCGGAUAACCUCUCUAUGG
RNA 2: GGGAAUGGAUCCACAUCUACGAAUUCGUACCAUAGAAAGCUUAUCCGCUCACCGAGAUCGGAAGAGCACACGU
B23: target 1 insA 3' of 12,insC 3' of 3 (mixed)
RNA 1: CACCCGUGCAAAAAUGCAGGGGUCUAAAACUGAGCGGAUAACCUCUCUAUGG
RNA 2: GGGAAUGGAUCCACAUCUACGAAUUCGUACCAUAGAGAGGAUUAUCCGCUCCACCGAGAUCGGAAGAGCACACGU

The target in the series is T1, EsCas13d, nuclease-dead. The series is described as follows: crRNA (strand 1, pre-loaded); Mg2+; 40 mM Tris-HCl pH 7.5, 150 mM NaCl, 6 mM MgCl2, 1 mM DTT, 0.1% Tween-20, 0.2 mg/ml BSA; 25 C; 10 min per concentration, then washed. The following applies: tags: His6-TwinStrep-SUMO cleaved; N-terminal SNAP kept (SNAP-Surface 488); label: 3' end held by stalled T7 RNA polymerase.
The term Kd denotes a measure of binding affinity in units of concentration. High values mean a looser complex, low ones a tighter complex. Turning to B1, the Kd is 10 ± 2.3 nM.

As to B2, the affinity, expressed as Kd, was 33 ± 15 nM.

In turn, B3 displayed a Kd of 55 ± 16 nM.

Molecule B4 came in with a Kd of 9.8 ± 1.1 nM.

Consider B5, for which the Kd worked out at 12.9 ± 0.9 nM.

Consider B6, for which binding was put at a Kd of 12.2 ± 1 nM.

The molecule B7 returned a Kd of 6.1 ± 1.5 nM.

Regarding B8, the Kd was 9.8 ± 2.1 nM.

B9 displayed a Kd of 5.6 ± 1.3 nM.

The molecule B10 displayed a Kd of roughly 70 nM.

With B11, the Kd was determined as 5.7 ± 0.8 nM.

The molecule B12 yielded a Kd of 30 ± 6 nM.

Regarding B13, the Kd turned out to be 11.4 ± 0.7 nM.

The molecule B14 returned a Kd of 4.4 ± 0.5 nM.

B15 returned a Kd of 15.2 ± 1.5 nM.

Turning to B16, the affinity, expressed as Kd, was 8.8 ± 3.5 nM.

Molecule B17 displayed a Kd of 17 ± 1.6 nM.

In the case of B18, binding was put at a Kd of 14.8 ± 2.7 nM.

The molecule B19 came in with a Kd of 12.4 ± 1.5 nM.

The molecule B20 displayed a Kd of 9.5 ± 2.9 nM.

Turning to B21, the affinity, expressed as Kd, was 4.9 ± 1.2 nM.

B22 displayed a Kd of 50 ± 16 nM.

Molecule B23 registered a Kd of 26.6 ± 3 nM.
